Article PMC7954794, “Protein context shapes the specificity of SH3 domain-mediated interactions in vivo” (Nature Communications, 2021)

B1: Sho1 WT (protein, UniProt P40073 1-367, looked up)
High osmolarity signaling …: MSISSKIRPTPRKPSRMATDHSFKMKKFYADPFAISSISLAIVSWVIAIGGSISSASTNESFPRFTWWGIVYQFLIICSLMLFYCFDLVDHYRIFITTSIAVAFVYNTNSATNLVYADGPKKAAASAGVILLSIINLIWILYYGGDNASPTNRWIDSFSIKGIRPSPLENSLHRARRRGNRNTTPYQNNVYNDAIRDSGYATQFDGYPQQQPSHTNYVSSTALAGFENTQPNTSEAVNLHLNTLQQRINSASNAKETNDNSNNQTNTNIGNTFDTDFSNGNTETTMGDTLGLYSDIGDDNFIYKAKALYPYDADDDDAYEISFEQNEILQVSDIEGRWWKARRANGETGIIPSNYVQLIDGPEEMHR
B2: Myo5 WT (protein, UniProt Q04439 1-1219, looked up)
Myosin-5: MAILKRGARKKVHQEPAKRSANIKKATFDSSKKKEVGVSDLTLLSKISDEAINENLKKRFLNATIYTYIGHVLISVNPFRDLGIYTDAVMNEYKGKNRLEVPPHVFAIAESMYYNMKSYNENQCVIISGESGAGKTEAAKRIMQYIAAASSTHTESIGKIKDMVLATNPLLESFGCAKTLRNNNSSRHGKYLEIKFNNQFEPCAGNITNYLLEKQRVVSQIKNERNFHIFYQFTKGASDAYRQTFGVQKPEQYVYTAAAGCISAETIDDLQDYQETLKAMRVIGLGQEEQDQIFRMLAAILWIGNVSFIENEEGNAQVRDTSVTDFVAYLLQIDSQLLIKSLVERIMETNHGMKRGSVYHVPLNIVQADAVRDALAKAIYNNLFDWIVSRVNKSLQAFPGAEKSIGILDIYGFEIFEHNSFEQICINYVNEKLQQIFIQLTLKSEQETYEREKIQWTPIKYFDNKVVCDLIEARRPPGIFAAMNDSVATAHADSNAADQAFAQRLNLFTTNPHFDLRSNKFVIKHYAGDVTYDIDGITDKNKDQLQKDLVELIGTTTNTFLATIFPDTVDRESKRRPPTAGDKIIKSANDLVETLSKAQPSYIRTIKPNETKSPNDYDDRQVLHQIKYLGLQENVRIRRAGFAYRQVFEKFVERFYLLSPHCSYAGDYTWQGDTLDAVKYILQDSSIPQQEYQLGVTSVFIKTPETLFALEHMRDRYWHNMAARIQRAWRRFLQRRIDAATKIQRTIRERKEGNKYEKLRDYGTKVLGGRKERRSMSLLGYRAFMGDYLSCNESKSKGAYIKRQVSIKEKVIFSIHGEALHTKFGRSAQRLKKTFLLTPTTLYIVGQTLVQNAMTYTQDYKIDVRNIQAVSLTNLQDDWVAIKLASSGQPDPLINTYFKTELITHLKRLNDKIQIKIGSAIEYQKKPGKLHSVKCQINESAPKYGDIYKSSTISVRRGNPPNSQVHKKPRKKSSISSGYHASSSQATRRPVSIAAAQHVPTAPASRHSKKPAPPPPGMQNKAATRRSVPNPASTLTASQSNARPSPPTAATRATPAATPAAAAMGSGRQANIPPPPPPPPPSSKPKEPMFEAAYDFPGSGSPSELPLKKGDVIYITREEPSGWSLGKLLDGSKEGWVPTAYMKPHSGNNNIPTPPQNRDVPKPVLNSVQHDNTSANVIPAAAQASLGDGLANALAARANKMRLESDDEEANEDEEEDDW
B3: Sla1 WT (protein, UniProt P32790 1-1244, looked up)
Actin cytoskeleton-regulatory …: MTVFLGIYRAVYAYEPQTPEELAIQEDDLLYLLQKSDIDDWWTVKKRVIGSDSEEPVGLVPSTYIEEAPVLKKVRAIYDYEQVQNADEELTFHENDVFDVFDDKDADWLLVKSTVSNEFGFIPGNYVEPENGSTSKQEQAPAAAEAPAATPAAAPASAAVLPTNFLPPPQHNDRARMMQSKEDQAPDEDEEGPPPAMPARPTATTETTDATAAAVRSRTRLSYSDNDNDDEEDDYYYNSNSNNVGNHEYNTEYHSWNVTEIEGRKKKKAKLSIGNNKINFIPQKGTPHEWSIDKLVSYDNEKKHMFLEFVDPYRSLELHTGNTTTCEEIMNIIGEYKGASRDPGLREVEMASKSKKRGIVQYDFMAESQDELTIKSGDKVYILDDKKSKDWWMCQLVDSGKSGLVPAQFIEPVRDKKHTESTASGIIKSIKKNFTKSPSRSRSRSRSKSNANASWKDDELQNDVVGSAAGKRSRKSSLSSHKKNSSATKDFPNPKKSRLWVDRSGTFKVDAEFIGCAKGKIHLHKANGVKIAVAADKLSNEDLAYVEKITGFSLEKFKANDGSSSRGTDSRDSERERRRRLKEQEEKERDRRLKERELYELKKARELLDEERSRLQEKELPPIKPPRPTSTTSVPNTTSVPPAESSNNNNSSNKYDWFEFFLNCGVDVSNCQRYTINFDREQLTEDMMPDINNSMLRTLGLREGDIVRVMKHLDKKFGRENIASIPTNATGNMFSQPDGSLNVATSPETSLPQQLLPQTTSPAQTAPSTSAETDDAWTVKPASKSESNLLSKKSEFTGSMQDLLDLQPLEPKKAAASTPEPNLKDLEPVKTGGTTVPAAPVSSAPVSSAPAPLDPFKTGGNNILPLSTGFVMMPMITGGDMLPMQRTGGFVVPQTTFGMQSQVTGGILPVQKTGNGLIPISNTGGAMMPQTTFGAAATVLPLQKTGGGLIPIATTGGAQFPQTSFNVQGQQQLPTGSILPVQKTANGLISANTGVSMPTVQRTGGTMIPQTSFGVSQQLTGGAMMTQPQNTGSAMMPQTSFNAVPQITGGAMMPQTSFNALPQVTGGAMMPLQRTGGALNTFNTGGAMIPQTSFSSQAQNTGGFRPQSQFGLTLQKTGGIAPLNQNQFTGGAMNTLSTGGVLQQQQPQTMNTFNTGGVMQELQMMTTFNTGGAMQQPQMMNTFNTDGIMQQPQMMNTFNTGGAMQQPQQQALQNQPTGFGFGNGPQQSRQANIFNATASNPFGF
B4: Abp1 WT (protein, UniProt P15891 2-592, looked up)
Actin-binding protein: ALEPIDYTTHSREIDAEYLKIVRGSDPDTTWLIISPNAKKEYEPESTGSSFHDFLQLFDETKVQYGLARVSPPGSDVEKIIIIGWCPDSAPLKTRASFAANFAAVANNLFKGYHVQVTARDEDDLDENELLMKISNAAGARYSIQTSSKQQGKASTPPVKKSFTPSKSPAPVSKKEPVKTPSPAPAAKISSRVNDNNDDDDWNEPELKERDFDQAPLKPNQSSYKPIGKIDLQKVIAEEKAKEDPRLVQKPTAAGSKIDPSSDIANLKNESKLKRDSEFNSFLGTTKPPSMTESSLKNDDDKVIKGFRNEKSPAQLWAERKAKQNSGNAETKAEAPKPEVPEDEPEGEPDVKDLKSKFEGLAASEKEEEEMENKFAPPPKKSEPTIISPKPFSKPQEPVKAEEAEQPKTDYKKIGNPLPGMHIEADNEEEPEENDDDWDDDEDEAAQPPLPSRNVASGAPVQKEEPEQEEIAPSLPSRNSIPAPKQEEAPEQAPEEEIEEEAEEAAPQLPSRSSAAPPPPPRRATPEKKPKENPWATAEYDYDAAEDNELTFVENDKIINIEFVDDDWWLGELEKDGSKGLFPSNYVSLGN
B5: Bem1 WT (protein, UniProt P29366 1-551, looked up)
Bud emergence protein 1: MLKNFKLSKRDSNGSKGRITSADISTPSHDNGSVIKHIKTVPVRYLSSSSTPVKSQRDSSPKNRHNSKDITSPEKVIKAKYSYQAQTSKELSFMEGEFFYVSGDEKDWYKASNPSTGKEGVVPKTYFEVFDRTKPSSVNGSNSSSRKVTNDSLNMGSLYAIVLYDFKAEKADELTTYVGENLFICAHHNCEWFIAKPIGRLGGPGLVPVGFVSIIDIATGYATGNDVIEDIKSVNLPTVQEWKSNIARYKASNISLGSVEQQQQQSITKPQNKSAKLVDGELLVKASVESFGLEDEKYWFLVCCELSNGKTRQLKRYYQDFYDLQVQLLDAFPAEAGKLRDAGGQWSKRIMPYIPGPVPYVTNSITKKRKEDLNIYVADLVNLPDYISRSEMVHSLFVVLNNGFDREFERDENQNNIKTLQENDTATFATASQTSNFASTNQDNTLTGEDLKLNKKLSDLSLSGSKQAPAQSTSGLKTTKIKFYYKDDIFALMLKGDTTYKELRSKIAPRIDTDNFKLQTKLFDGSGEEIKTDSQVSNIIQAKLKISVHDI

Each molecule was assayed on SH3-deleted bait proteins (1xFLAG) (assay: Western blot expression level of SH3-deleted baits (Fig. S1F-G)). Conditions: Western blot Flag signal, 1xFLAG-tagged WT or SH3-deleted bait; sheet FigS1F-G.
Type: cell-based, Saccharomyces cerevisiae
Description: Precultures of yeast cells expressing baits fused with the DHFR F[1,2]-FLAG were grown overnight at 30 °C with agitation in synthetic complete medium. The next day, cells were expanded in synthetic complete medium to reach their exponential phase (OD600 of around 1.0), pelleted, and frozen at −80 °C. The equivalent of fifty OD600 of cells was resuspended in ice-cold yeast lysis buffer (10 mM Tris-HCl pH 7.4, 150 mM NaCl, 0.5 mM EDTA (Millipore Sigma), 1% Triton X-100 (Millipore Sigma), and one cOmplete Mini Protease Inhibitor Cocktail (Millipore Sigma) per 10 mL) with […] glass beads (Millipore Sigma) and disrupted at 4 °C by 10 cycles of 2 min vortexing and 2 min cooldown. The equivalent of […] of lysed cells was used for the immunoprecipitation of the bait proteins using FLAG-M2 agarose beads (Millipore Sigma). The beads were incubated with the cell lysates for 120 min at 4 °C with a slow rotation, followed by three washes with the yeast lysis buffer.
Protein extracts and affinity-purified baits from yeast and human lysed cells were migrated on 10% polyacrylamide gels. The separated proteins were then transferred to nitrocellulose membranes. Validation of correct protein loading was done with ponceau staining of the membranes. Before the primary antibody incubations, membranes were blocked in 5% milk. Protein signals were detected on an Amersham Imager 600RGB (GE Healthcare) following the incubation of the membranes with the appropriate HRP-conjugated secondary antibodies and the Clarity Western ECL Substrate (Bio-Rad). The antibodies used in this study are M2-HRP (A8592, Sigma, 1/50,000), rabbit anti-FLAG (F7425, Sigma, 1/1000), PAK (SC-881, Santa Cruz, 1/200), p130cas/BCAR1 (SC-860, Santa Cruz, 1/200), actin (Cell Signaling Technology, 1/2000), anti-mouse HRP (Cell Signaling Technology, 1/10,000) and anti-rabbit HRP (Cell Signaling Technology, 1/10,000). The quantification of the WB signals was performed with the Amersham Imager 600 analysis software (GE Healthcare).
Molecule B1 has a Flag of 42239.
B2 gave a Flag of 93590.
With B3 the Flag was 58812.
Molecule B4 has a Flag of 9263.
For B5, the Flag was 104455.
